# From patent US20040087783
# B1: N-terminal hexahistidine tagged SAD (protein)
# chain: MRGSHHHHHHEPFLRRRLAFLSFFWDKIWPAGGEPDHGTPGSLDPNTDPVPTLPAEPCSPFPQLFLALYDFTARCGGELSVRRGDRLCALEEGGGYIFARRLSGQPSAGLVPITHVAKASPETLSDQPWYFSGVSRTQAQQLLLSPPNEPGAFLIRPSESSLGGYSLSVRAQAKVCHYRVSMAADGSLYLQKGRLFPGLEELLTYYKANWKLIQNPLLQPCMPQKAPRQDVWERPHSEFALGRKLGEGYFGEVWEGLWLGSLPVAIKVIKSANMKLTDLAKEIQTLKGLRHERLIRLHAVCSGGEPVYIVTELMRKGNLQAFLGTPEGRALRLPPLLGFACQVAEGMSYLEEQRVVHRDLAARNVLVDDGLACKVADFGLARLLKDDIYSPSSSSKIPVKWTAPEAANYRVFSQKSDVWSFGVLLHEVFTYGQCPYEGMTNHETLQQIMRGYRLPRPAACPAEVYVLMLECWRSSPEERPSFATLREKLHAIHRCHP
# Molecular target: denatured enolase
protein,measurement,value
B1,"phosphorylation of substrate, in vitro kinase assay with 32P-ATP, autoradiography",SAD was able to phosphorylate both denatured enolase and poly-Glu-Tyr in vitro
